This is an account of results in publication PMC7116837 (Nature microbiology, 2021).

The target in test [1] is Variant Surface Glycoprotein VSGsur, N-terminal domain (T. brucei rhodesiense). Nature of the test: crystal structure.
The target in test [2] is Variant Surface Glycoprotein VSG13, N-terminal domain (T. brucei brucei Lister 427). The experiment in a line: crystal structure.
For test [3], the target named is T1, VSGsur (Variant Surface Glycoprotein VSGsur) (Trypanosoma brucei, UniProt A0A291L8F4).
T1 sequence (A0A291L8F4 30-408): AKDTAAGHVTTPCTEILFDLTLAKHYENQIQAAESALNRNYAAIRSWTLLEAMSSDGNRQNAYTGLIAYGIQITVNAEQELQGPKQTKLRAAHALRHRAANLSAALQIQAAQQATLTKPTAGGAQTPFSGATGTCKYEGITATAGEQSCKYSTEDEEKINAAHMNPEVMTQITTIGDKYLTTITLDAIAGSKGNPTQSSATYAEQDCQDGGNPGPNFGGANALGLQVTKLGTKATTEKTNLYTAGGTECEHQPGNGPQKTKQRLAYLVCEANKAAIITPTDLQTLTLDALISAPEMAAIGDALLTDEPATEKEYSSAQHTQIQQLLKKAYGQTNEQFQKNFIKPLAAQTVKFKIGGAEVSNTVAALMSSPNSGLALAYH
Nature of the test: crystal structure. It counts as binding.

For test [4], the target named is T2, VSGsur (Variant Surface Glycoprotein VSGsur) (Trypanosoma brucei, UniProt A0A291L8F4).
T2 sequence (A0A291L8F4 30-475): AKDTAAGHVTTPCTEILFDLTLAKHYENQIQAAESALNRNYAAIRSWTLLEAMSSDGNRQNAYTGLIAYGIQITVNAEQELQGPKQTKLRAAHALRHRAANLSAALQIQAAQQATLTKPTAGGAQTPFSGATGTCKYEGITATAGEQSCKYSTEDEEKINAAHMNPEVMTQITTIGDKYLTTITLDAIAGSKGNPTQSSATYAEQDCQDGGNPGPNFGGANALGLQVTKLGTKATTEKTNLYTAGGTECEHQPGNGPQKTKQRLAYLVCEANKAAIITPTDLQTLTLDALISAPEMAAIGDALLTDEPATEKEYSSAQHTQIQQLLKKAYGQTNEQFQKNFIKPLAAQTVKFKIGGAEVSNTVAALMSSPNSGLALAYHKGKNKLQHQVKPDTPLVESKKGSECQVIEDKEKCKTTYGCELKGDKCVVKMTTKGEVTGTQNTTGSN
Nature of the test: ITC and […] Å co-crystal structure. The test is classed as binding.

In general, stoichiometry N refers to the number of molecules, sites or subunits per partner or assembly. For orientation: Kd means the free concentration of one partner at which half of the binding sites on the other are occupied at equilibrium, for simple one-to-one binding. Read a low Kd as a tighter complex.

In test [1], “Variant Surface Glycoprotein VSGsur, N-terminal domain (domain or fragment)” displayed a stoichiometry N of 2.
On to “Variant Surface Glycoprotein VSG13, N-terminal domain (domain or fragment)”, for which the stoichiometry N in test [2] worked out at 2.
In the case of `Nc1c(I)c(C(=O)O)c(I)c(C(=O)O)c1I` [I3C, 5-amino-2,4,6-triiodoisophthalic acid], the “crystal structure (50 mM overnight soak, phasing compound)” value in test [3] is on record as “occupies the same position as the suramin benzene groups, stacking similarly with H122”.
In turn, `Cc1ccc(C(=O)Nc2ccc(S(=O)(=O)O)c3cc(S(=O)(=O)O)cc(S(=O)(=O)O)c23)cc1NC(=O)c1cccc(NC(=O)Nc2cccc(C(=O)Nc3cc(C(=O)Nc4ccc(S(=O)(=O)O)c5cc(S(=O)(=O)O)cc(S(=O)(=O)O)c45)ccc3C)c2)c1` [suramin] had a Kd in test [4] of 234 ± 28 nM.
